Assay results as given in patent publication US20050181479A1 (AstraZeneca / MedImmune, published 2005).

Target: T1, human EphA2-Fc (human, UniProt P29317 25-534, limits assumed, biotinylated in the capture ELISA (sites not given))
T1 construct: also called biotinylated human EphA2-Fc; human receptor tyrosine kinase EphA2; not shown: Fc portion; species, isotype and any linker are not described
Experiment: EphA2-specific capture ELISA: Fab from E. coli samples captured on anti-human Fab or anti-Fd, detected with biotinylated human EphA2-Fc
Description: Capture ELISA: An EphA2-specific capture ELISA was carried out as follows: briefly, individual wells of a 96-well Maxisorp Immunoplate were coated with 20 or 2000 ng of a goat anti-human Fab antibody (Cappel, Calif.) or of a sheep anti-human Fd (BioDesign, ME), blocked with 3% BSA/PBS for 2 h at 37° C. and then incubated with 75 μl of the various samples (supernatants, periplasmic extracts and whole cell extracts of G5 Fab, 12G3 Fab, irrelevant Fab and variants thereof) for 2 hours at room temperature. 300 ng/well of biotinylated human EphA2-Fc was then added for 1.5 hours at room temperature. This was followed by incubation with a neutravidin-horseradish peroxidase (HRP) conjugate for 40 min at room temperature. HRP activity was detected with tetra methyl benzidine (TMB) substrate and the reaction quenched with 0.2 M H₂SO₄. Plates were read at 450 nm.

T1 sequence (P29317 25-534 limits assumed): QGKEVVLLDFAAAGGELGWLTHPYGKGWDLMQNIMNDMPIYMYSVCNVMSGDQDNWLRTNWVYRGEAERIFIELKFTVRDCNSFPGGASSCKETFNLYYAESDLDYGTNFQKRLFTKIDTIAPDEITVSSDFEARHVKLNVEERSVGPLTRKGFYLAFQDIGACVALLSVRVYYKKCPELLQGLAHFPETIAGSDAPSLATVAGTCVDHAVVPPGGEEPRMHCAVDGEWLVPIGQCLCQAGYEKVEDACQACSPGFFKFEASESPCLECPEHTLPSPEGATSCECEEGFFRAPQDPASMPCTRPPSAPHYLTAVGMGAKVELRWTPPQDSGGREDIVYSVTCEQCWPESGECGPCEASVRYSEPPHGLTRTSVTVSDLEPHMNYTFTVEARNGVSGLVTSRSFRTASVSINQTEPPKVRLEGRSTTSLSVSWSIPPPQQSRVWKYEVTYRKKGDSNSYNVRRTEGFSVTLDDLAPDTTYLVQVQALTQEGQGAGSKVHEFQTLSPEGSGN

Binder	binding result
G5 Fab (Fab, V domains shown, Fab expressed in E. coli TG1 from an M13-based phage vector and tested as unpurified supernatant, periplasmic extract or whole cell extract; They are kept as one molecule, since the leader is not part of the mature Fab; also called mAb G5; anti-EphA2 Fab) VH: QMQLVQSGPEVKKPGTSVKVSCKASGFTFTDYSMNWVRQARGQRLEWIGFIRNKANDYTTEYSASVKGRVTITRDMSTSTAYMELSSLRSEDTAVYYCARYPRYHAMDSWGQGTSVTVSS VL: DIQMTQSPSSLSASVGDRVTITCRASQSISNNLHWYQQKPGKAPKLLIKYVFQSISGVPSRFSGSGSGTDFTFTISSLQPEDFATYYCQQSNSWPLTFGGGTKVEIK	binds
12G3 Fab (Fab, V domains shown, Fab expressed in E. coli TG1 from an M13-based phage vector and tested as unpurified supernatant, periplasmic extract or whole cell extract; They are kept as one molecule, since the leader is not part of the mature Fab; also called mAb12G3; anti-EphA2 Fab) VH: QMQLVQSGPEVKKPGTSVKVSCKASGFTFDDYSMNWVRQARGQRLEWIGFIRNKANDYTTEYSASVKGRVTITRDMSTSTAYMELSSLRSEDTAVYYCARYPRHHAMDSWGQGTSVTVSS VL: DIQMTQSPSSLSASVGDRVTITCRASQSISNNLHWYQQKPGKAPKLLIKYAFQSISGVPSRFSGSGSGTDFTFTISSLQPEDFATYYCQQANSWPLTFGGGTKVEIK	binds
